# Experimental data published in publication PMC6060420, “Persulfide Dioxygenase From Acidithiobacillus caldus: Variable Roles of Cysteine Residues and Hydrogen Bond Networks of the Active Site” (Frontiers in Microbiology, 2018).
# Experiments:
# AcPDO = target: T1, AcPDO (Acidithiobacillus caldus, UniProt A0A2P9DTT9); assay: MALDI-TOF MS of tryptic peptides; format: binding; details: covalent; cysteine-GSH adducts at C87, C224, C137 after […] min with […] GSSH, pH […]
# T1 construct: gene pdo
# [1] = target: persulfide dioxygenase from Acidithiobacillus caldus C-SH12 (AcPDO) (Acidithiobacillus caldus C-SH12); assay: native gel or EMSA; gel of urea-treated AcPDO (Supplementary Figure S6B), urea up to 8 M; 54-kDa dimer band
# [2] = target: persulfide dioxygenase from Acidithiobacillus caldus C-SH12 (AcPDO) (Acidithiobacillus caldus C-SH12); assay: SDS-PAGE with Western blot; 10% acrylamide Tris-tricine SDS gel of purified AcPDO, detection with HRP-conjugated anti-Strep-tag antibody
# [3] = target: persulfide dioxygenase from Acidithiobacillus caldus C-SH12 (AcPDO) (Acidithiobacillus caldus C-SH12); assay: SEC; gel permeation chromatography, Superose 6 10/300 on an Äkta system, freshly prepared AcPDO (0.5 mg protein); standards cytochrome c, conalbumin, aldolase, catalase
# [4] = target: persulfide dioxygenase from Acidithiobacillus caldus C-SH12 (AcPDO) (Acidithiobacillus caldus C-SH12); assay: SEC; gel permeation chromatography, Superose 6 HR 10/30, previously frozen AcPDO, 2 M guanidinium chloride in 150 mM Tris/HCl pH 8, after 1 h at 25°C, 0.5 ml/min; tetramer to dimers
# T1 sequence (A0A2P9DTT9 1-235 limits assumed): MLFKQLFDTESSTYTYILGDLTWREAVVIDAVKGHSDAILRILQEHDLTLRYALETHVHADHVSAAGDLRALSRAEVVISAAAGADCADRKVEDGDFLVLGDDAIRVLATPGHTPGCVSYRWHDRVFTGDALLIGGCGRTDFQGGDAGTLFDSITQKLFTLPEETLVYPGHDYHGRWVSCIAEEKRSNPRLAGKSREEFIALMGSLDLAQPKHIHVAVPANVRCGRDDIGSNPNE
stoichiometry N [1],stoichiometry N [2],stoichiometry N [3],stoichiometry N [4],Molecule,MALDI-TOF MS of tryptic peptides (AcPDO)
–,–,–,–,N[C@@H](CCC(=O)N[C@@H](CSS)C(=O)NCC(=O)O)C(=O)O [GSSH],cysteine-GSH adducts were identified after the enzyme was incubated with GSSH
2,2,3.7 subunits,2,persulfide dioxygenase from Acidithiobacillus caldus C-SH12 (AcPDO) (enzyme),–
